Assay [1] concerns the target recombinant KIR2DL1 protein (entire extracellular domain, produced in E. coli, immobilized) (human) (UniProt P43626). Briefly: Biacore, KIR2DL1 chip; first Ab Pan2D vs competitor (second Ab) 1-4F1. A general note: In SPR one partner is held on a chip, and binding of the other changes the refractive index at the surface.
The target in assay [2] is immobilized KIR 2DS1 (UniProt Q14954). Briefly: Biacore, KIR2DS1 chip; first Ab Pan2D vs competitor (second Ab) 1-7F9.
Assay [3] deals with recombinant KIR2DL3 protein (entire extracellular domain, produced in E. coli, immobilized) (human) (UniProt P43628). Briefly: Biacore, KIR2DL3 chip; first Ab Pan2D vs competitor (second Ab) 1-6F5.
Chain of recombinant KIR2DL3 protein (entire extracellular domain, produced in E. coli, immobilized) (human) (P43628 22-245): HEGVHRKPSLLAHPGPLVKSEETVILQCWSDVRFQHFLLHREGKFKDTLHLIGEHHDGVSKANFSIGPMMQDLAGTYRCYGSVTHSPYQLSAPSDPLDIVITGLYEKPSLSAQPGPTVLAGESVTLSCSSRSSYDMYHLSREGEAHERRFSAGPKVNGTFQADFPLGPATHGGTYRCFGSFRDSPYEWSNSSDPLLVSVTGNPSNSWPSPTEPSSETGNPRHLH
Assay [4] shares this target. Briefly: Biacore, KIR2DL3 chip; first Ab Pan2D vs competitor (second Ab) 1-4F1.
Assay [5] deals with recombinant KIR2DL1 protein (entire extracellular domain, produced in E. coli, immobilized) (human) (UniProt P43626). Briefly: Biacore, KIR2DL1 chip; first Ab Pan2D vs competitor (second Ab) EB6.
Chain of recombinant KIR2DL1 protein (entire extracellular domain, produced in E. coli, immobilized) (human) (P43626 22-245): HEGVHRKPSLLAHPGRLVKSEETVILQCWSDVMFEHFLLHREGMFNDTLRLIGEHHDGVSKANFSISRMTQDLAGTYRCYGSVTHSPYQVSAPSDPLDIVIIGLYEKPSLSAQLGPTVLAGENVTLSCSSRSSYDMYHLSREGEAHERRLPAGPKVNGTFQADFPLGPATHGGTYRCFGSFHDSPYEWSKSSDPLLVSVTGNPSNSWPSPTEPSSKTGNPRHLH
The target in assay [6] is recombinant KIR2DL3 protein (entire extracellular domain, produced in E. coli, immobilized) (human) (UniProt P43628). Briefly: Biacore, KIR2DL3 chip; first Ab Pan2D vs competitor (second Ab) 1-6F1.
For assay [7] the target is unchanged. Briefly: Biacore, KIR2DL3 chip; first Ab Pan2D vs competitor (second Ab) 1-7F9.
Assay [8] has as its target recombinant KIR2DL1 protein (entire extracellular domain, produced in E. coli, immobilized) (human) (UniProt P43626). Briefly: Biacore, KIR2DL1 chip; first Ab Pan2D vs competitor (second Ab) DF200.
The target of assay [9] is recombinant KIR2DL3 protein (entire extracellular domain, produced in E. coli, immobilized) (human) (UniProt P43628). Briefly: Biacore, KIR2DL3 chip; first Ab Pan2D vs competitor (second Ab) DF200.
Assay [10] has the same target. Briefly: Biacore, KIR2DL3 chip; first Ab Pan2D vs competitor (second Ab) gl183.
The target is the same in assay [11]. Briefly: Biacore, KIR2DL3 chip; second Ab injected alone.
Assay [12] has as its target recombinant KIR2DL1 protein (entire extracellular domain, produced in E. coli, immobilized) (human) (UniProt P43626). Briefly: Biacore, KIR2DL1 chip; second Ab injected alone.
Assay [13] shares this target. Briefly: Biacore, KIR2DL1 chip; first Ab Pan2D vs competitor (second Ab) 1-7F9.
The target in assay [14] is immobilized KIR 2DS1 (UniProt Q14954). Briefly: Biacore, KIR2DS1 chip; second Ab injected alone.
Assay [15] has the same target. Briefly: Biacore, KIR2DS1 chip; first Ab Pan2D vs competitor (second Ab) DF200.
Assay [16] has the same target. Briefly: Biacore, KIR2DS1 chip; first Ab Pan2D vs competitor (second Ab) 1-4F1.
Assay [17] concerns the target recombinant KIR2DL1 protein (entire extracellular domain, produced in E. coli, immobilized) (human) (UniProt P43626). Briefly: Biacore, KIR2DL1 chip; first Ab Pan2D vs competitor (second Ab) 1-6F5.
For assay [18] the target is unchanged. Briefly: Biacore, KIR2DL1 chip; first Ab Pan2D vs competitor (second Ab) 1-6F1.
The target in assay [19] is recombinant KIR2DL3 protein (entire extracellular domain, produced in E. coli, immobilized) (human) (UniProt P43628). Briefly: Biacore, KIR2DL3 chip; first Ab gl183 vs competitor (second Ab) 1-4F1.
Assay [20] has the same target. Briefly: Biacore, KIR2DL3 chip; first Ab gl183 vs competitor (second Ab) 1-6F1.
The target is the same in assay [21]. Briefly: Biacore, KIR2DL3 chip; first Ab gl183 vs competitor (second Ab) Pan2D.
The target is the same in assay [22]. Briefly: Biacore, KIR2DL3 chip; first Ab gl183 vs competitor (second Ab) DF200.
Assay [23] shares this target. Briefly: Biacore, KIR2DL3 chip; first Ab gl183 vs competitor (second Ab) 1-7F9.
Assay [24] concerns the target recombinant KIR2DL1 protein (entire extracellular domain, produced in E. coli, immobilized) (human) (UniProt P43626). Briefly: Biacore, KIR2DL1 chip; first Ab EB6 vs competitor (second Ab) 1-4F1.
Assay [25] has the same target. Briefly: Biacore, KIR2DL1 chip; first Ab EB6 vs competitor (second Ab) EB6 (self).
Assay [26] shares this target. Briefly: Biacore, KIR2DL1 chip; first Ab EB6 vs competitor (second Ab) 1-6F1.
For assay [27] the target is unchanged. Briefly: Biacore, KIR2DL1 chip; first Ab EB6 vs competitor (second Ab) Pan2D.
The target is the same in assay [28]. Briefly: Biacore, KIR2DL1 chip; first Ab EB6 vs competitor (second Ab) DF200.
Assay [29] shares this target. Briefly: Biacore, KIR2DL1 chip; first Ab EB6 vs competitor (second Ab) 1-7F9.
Assay [30] deals with recombinant KIR2DL3 protein (entire extracellular domain, produced in E. coli, immobilized) (human) (UniProt P43628). Briefly: Biacore, KIR2DL3 chip; first Ab DF200 vs competitor (second Ab) 1-6F1.
Assay [31] addresses recombinant KIR2DL1 protein (entire extracellular domain, produced in E. coli, immobilized) (human) (UniProt P43626). Briefly: Biacore, KIR2DL1 chip; first Ab DF200 vs competitor (second Ab) Pan2D.
The target of assay [32] is immobilized KIR 2DS1 (UniProt Q14954). Briefly: Biacore, KIR2DS1 chip; first Ab DF200 vs competitor (second Ab) 1-4F1.
The target is the same in assay [33]. Briefly: Biacore, KIR2DS1 chip; first Ab DF200 vs competitor (second Ab) Pan2D.
Assay [34] shares this target. Briefly: Biacore, KIR2DS1 chip; first Ab DF200 vs competitor (second Ab) 1-7F9.
In assay [35] the target is recombinant KIR2DL1 protein (entire extracellular domain, produced in E. coli, immobilized) (human) (UniProt P43626). Briefly: Biacore, KIR2DL1 chip; first Ab DF200 vs competitor (second Ab) 1-7F9.
Assay [36] addresses recombinant KIR2DL3 protein (entire extracellular domain, produced in E. coli, immobilized) (human) (UniProt P43628). Briefly: Biacore, KIR2DL3 chip; first Ab DF200 vs competitor (second Ab) gl183.
For assay [37] the target is unchanged. Briefly: Biacore, KIR2DL3 chip; first Ab DF200 vs competitor (second Ab) 1-6F5.
Assay [38] concerns the target recombinant KIR2DL1 protein (entire extracellular domain, produced in E. coli, immobilized) (human) (UniProt P43626). Briefly: Biacore, KIR2DL1 chip; first Ab DF200 vs competitor (second Ab) 1-4F1.
For assay [39], the target named is recombinant KIR2DL3 protein (entire extracellular domain, produced in E. coli, immobilized) (human) (UniProt P43628). Briefly: Biacore, KIR2DL3 chip; first Ab DF200 vs competitor (second Ab) 1-4F1.
Assay [40] addresses recombinant KIR2DL1 protein (entire extracellular domain, produced in E. coli, immobilized) (human) (UniProt P43626). Briefly: Biacore, KIR2DL1 chip; first Ab DF200 vs competitor (second Ab) 1-6F5.
The target in assay [41] is recombinant KIR2DL3 protein (entire extracellular domain, produced in E. coli, immobilized) (human) (UniProt P43628). Briefly: Biacore, KIR2DL3 chip; first Ab DF200 vs competitor (second Ab) Pan2D.
The target of assay [42] is recombinant KIR2DL1 protein (entire extracellular domain, produced in E. coli, immobilized) (human) (UniProt P43626). Briefly: Biacore, KIR2DL1 chip; first Ab DF200 vs competitor (second Ab) 1-6F1.
The target in assay [43] is recombinant KIR2DL3 protein (entire extracellular domain, produced in E. coli, immobilized) (human) (UniProt P43628). Briefly: Biacore, KIR2DL3 chip; first Ab DF200 vs competitor (second Ab) 1-7F9.
For assay [44], the target named is recombinant KIR2DL1 protein (entire extracellular domain, produced in E. coli, immobilized) (human) (UniProt P43626). Briefly: Biacore, KIR2DL1 chip; first Ab DF200 vs competitor (second Ab) EB6.

“And” between values parts separate entries of the source, which are not always exact repeats. Identical values can stand only once.

Chain of immobilized KIR 2DS1 (Q14954 22-245 limits assumed): as the sequence (P43626 22-245) above, with T70K, V90L, L114P, P154T, D163N, H182R, K216E counted along it

In the case of monoclonal antibody NKVSF1, the percent inhibition of second antibody binding in assay [1] was found to be 95%; with immobilized KIR 2DS1 [2] it was 45%; in assay [3], 18%; in assay [4], 68%; in assay [5], 90%; in assay [6], 8%. Further, the percent inhibition of second antibody binding in assay [7] amounted to 15%; in assay [8], 90%; in assay [9], 95%; in assay [10], 85%; in [13] it was 2%; with immobilized KIR 2DS1 [15], 100%. Besides, the percent inhibition of second antibody binding with immobilized KIR 2DS1 [16] was determined as 100%; in assay [17], 13%; in assay [18], 12%. The RU, second antibody alone is 2400 RU and 870 RU and 990 RU in [11]; 545 RU and 475 RU in assay [12]; 1350 RU with immobilized KIR 2DS1 [14].
With GL183 (IgG1 anti KIR2DL3) (antibody), the percent inhibition of second antibody binding in assay [19] amounted to 75%; in assay [20] it was 18%; in [21], 40%; in [22] it was 8%; in assay [23], 76%. For the same substance, the RU, second antibody alone in [11] is 1240 RU and 800 RU and 620 RU.
Turning to EB6 (IgG1 anti KIR2DL1) (antibody), the percent inhibition of second antibody binding in assay [24] came to 48%; in assay [25] it was 57%; in assay [26] it was 23%; in assay [27], 40%; in [28] it was 60%; in assay [29] it was 65%. In addition, the RU, second antibody alone in assay [12] is 460 RU and 260 RU.
“monoclonal antibody DF200 produced by hybridoma DF200”: the percent inhibition of second antibody binding in assay [30] is 16%; in assay [31] it was 80%; with immobilized KIR 2DS1 [32], 87%; in the assay with immobilized KIR 2DS1 [33] it was 70%; in the assay with immobilized KIR 2DS1 [34], 15%; in assay [35], 27%. Further, the percent inhibition of second antibody binding is 20% in [36]; 4% in assay [37]; 92% in assay [38]; 75% in assay [39]; 15% in assay [40]; 75% in [41]. The percent inhibition of second antibody binding in assay [42] was 15%; in [43], 62%; in assay [44] it was 90%. The RU, second antibody alone was 600 RU and 350 RU in assay [12]; 900 RU with immobilized KIR 2DS1 [14].

The values are drawn from US20060263361A1.
